The assay deals with GST-hAKT2 (human, UniProt P31751 1-481). The assay can be described thus: pull-down.
Sequence of GST-hAKT2 (P31751 whole entry): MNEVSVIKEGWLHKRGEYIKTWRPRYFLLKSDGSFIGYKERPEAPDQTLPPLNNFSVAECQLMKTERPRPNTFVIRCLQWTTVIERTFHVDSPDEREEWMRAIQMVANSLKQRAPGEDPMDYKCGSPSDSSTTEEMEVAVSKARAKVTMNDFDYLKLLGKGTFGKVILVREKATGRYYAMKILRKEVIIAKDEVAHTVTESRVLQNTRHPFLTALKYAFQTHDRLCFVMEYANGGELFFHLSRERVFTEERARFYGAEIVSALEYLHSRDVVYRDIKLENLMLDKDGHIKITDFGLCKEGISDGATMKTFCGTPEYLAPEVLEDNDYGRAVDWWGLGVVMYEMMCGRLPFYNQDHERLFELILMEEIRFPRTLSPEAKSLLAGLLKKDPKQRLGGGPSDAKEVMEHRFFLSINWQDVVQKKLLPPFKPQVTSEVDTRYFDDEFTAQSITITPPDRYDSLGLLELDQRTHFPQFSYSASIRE

B1: 6*His-hIRF3 (natural protein)
chain: MGTPKPRILPWLVSQLDLGQLEGVAWVNKSRTRFRIPWKHGLRQDAQQEDFGIFQAWAEATGAYVPGRDKPDLPTWKRNFRSALNRKEGLRLAEDRSKDPHDPHKIYEFVNSGVGDFSQPDTSPDTNGGGSTSDTQEDILDELLGNMVLAPLPDPGPPSLAVAPEPCPQPLRSPSLDNPTPFPNLGPSENPLKRLLVPGEEWEFEVTAFYRGRQVFQQTISCPEGLRLVGSEVGDRTLPGWPVTLPDPGMSLTDRGVMSYVRHVLSCLGGGLALWRAGQWLWAQRLGHCHTYWAVSEELLPNSGHGPDGEVPKDKEGGVFDLGPFIVDLITFTEGSGRSPRYALWFCVGESWPQDQPWTKRLVMVKVVPTCLRALVEMARVGGASSLENTVDLHISNSHPLSLTSDQYKAYLQDLVEGMDFQGPGES
Turning to B1, the binding result is “binds”.

The record behind these values is publication PMC8922272 (The EMBO Journal, 2022).
